Test results taken from the nanobody polyreactivity screen of Harvey et al. (2022).

Experiment: yeast display, Sf9 membrane polyspecificity reagent, FACS + sequencing; frameworks hold sequencing errors
Procedure, shortened: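 Synthetic nanobody libraries on Saccharomyces cerevisiae BJ5465 were galactose-induced for 36–48 hours, stained 1 hour at 4 °C with 10% biotinylated, detergent-solubilized Sf9 membrane reagent and enriched on streptavidin microbeads. FACS then separated cells into low and high (top ~1%) gates by anti-HA (expression) and streptavidin (reagent binding) fluorescence. Genes were colony-PCR amplified, MiSeq 2 × 250 sequenced and CDR-length filtered. A clone's polyreactivity label is that of its gate of origin.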

| Sequence | polyreactivity (PSR sort gate) |
| --- | --- |
| QVQLEESGGGLVQAGGSLRLSCAASGLIFGWYAMGWYRQAPGKERELVAAISRRGGSTYYADSVKGRFTISRDNAKNSVFLQMNSLKPEDTAVYYCNADTYGDSYDYWGQGTQVTVSS | high polyreactivity |
| QVQLEESGGGLVQAGGSLRLSCAASGLTFPSNDMGCYRQAPGKERELVAASSKRGGRTYYADYVKGRFTISRDNAKNTVYLQMNSLKPEDTAVYYCATPYAFPGTVQYAGYNYWGQGTQVTVSS | high polyreactivity |
| QVQLEESGGGLVQAGGSLRLSCAASGLTFSRYAMGSYRQATGKERELVAAISIRGGNTYYADSVKGRFTISRDNAKNTVYLQMNSLKPEDTAVYYCNAVVYHYTLDHEYDYWGQGTQVTVSS | high polyreactivity |
| QVQLEESGGGLVQAGGSLRLSCAASGLTFVQYTMGWYRQAPGKERELVAVITSASSTNYADSVKGRFTISRDNAKNTVYLQMNSLKPEDPAVYYCNATTYPYYTNSYQYEYWGQGTQVTVSS | low polyreactivity |
| QVQLEESGGGLVQAGGSLRLSCAASGLTFVYNTMGMYRQAPGKERELVAAINWSGGRTYYADSVKGRFTISRDNAKNTVYLQMNSLKPEDTAVYYCAALYVPNTPTYKYDYWGQGTQVTVSS | low polyreactivity |
| QVQLEESGGGLVQAGGSLRLSCAASGLTIFVNAMGWYRQAPGKERELVATISGGGSTYYADSVKARFTISRDNAKNTVYLQMNSLKPEDTAVYYCATVWPHRFRYEYWGQGTQVTVSS | low polyreactivity |
| QVQLEESGGGLVQAGGSLRLSCAASGNILFKYAMGWNRQAPGKERELVASITSRGGSTYYADSVKGRFTISRDNAKNTVYLQMNSLKPEDTAVYYCAVDADEVTFDYWGQGTQVTVSS | low polyreactivity |
| QVQLEESGGGLVQAGGSLRLSCAASGNTFPGYAMGWYRQAPGKERELVARISRSGGSTYYADSVKGRFTISRDNAKKTVYLQMNSLKPEDTAVYYCAAGAYRSGGYSFDYWGQGTQVTVSS | low polyreactivity |
| QVQLEESGGGLVQAGGSLRLSCAASGNTFTEYAMGWYRPAPGKEWELVASITGSGGSTYADSVKGRFTISRDNAKNSVYLQMNSLIAEDTAVYYCAKDTRYEYVGSEYGYWGQGTQVTVSS | low polyreactivity |
| QVQLEESGGGLVQAGGSLRLSCAASGRIFATNAMGWYRPAPATERELVAAISSSGGPTYYADSVKGRFTISRDNAKNTVYLQMNSLIREATAVYYCARVPITNDQYSHYYYWGQGTQVTVSS | high polyreactivity |
| QVQLEESGGGLVQAGGSLRLSCAASGRIFGINALGWYRQAPGQERALVAAISRSGSRTYYADSVKGRFTISRDNAMNTVYLQMNSLKPEDTALYYCNARHQRFYAQPGDYWGQGTQVTVSS | high polyreactivity |
| QVQLEESGGGLVQAGGSLRLSCAASGRIFGWYTMGWYRQAPGKERELVAAINFSGSRTYYADSVKGRFTISRDNAKNTVYLQMNSLKPEDTAVYYCNAVYHQFREEYWGQGTQVTVSS | high polyreactivity |
| QVQLEESGGGLVQAGGSLRLSCAASGRIFGYYDMGWYRQAPGKERELVARITRGGGTTYYADSVKGRFTISRDNAKNTVYLQMNSLKPEDTAVYYCAAVRSWWHTHYNYDYWGQGTQVTVSS | high polyreactivity |
| QVQLEESGGGLVQAGGSLRLSCAASGRIFHVNAMGWYRPAPGKERELVAAISTSGGRTYYADSVKGRFTISRDNAKNTVYLQMNSLKPEDTAVYYCAKRWPLYVDPTRMDYWGQGTQVTVSS | high polyreactivity |
| QVQLEESGGGLVQAGGSLRLSCAASGRIFPRYAMGWYRQAPGKERELVATISSGGSTYYADSVKGRFTISRDNATNTVYLQMNSLTPEDTAVYYCAARKRPYSVINGMDYWGQGTQVTVSS | low polyreactivity |
| QVQLEESGGGLVQAGGSLRLSCAASGRIFRPYAMGWYRQAPGKERELVAAISFSGGSTYYADSVKGRFTISRDNAKNTVYLQMNSLKPEDTAVYYCNKDLYRYPGYDYWGQGTQVTVSS | high polyreactivity |
| QVQLEESGGGLVQAGGSLRLSCAASGRIFSNNVMGWYRQAPGKERELVATISTDGRTNYADSVKGRFTISRDNAKNTVYLQMNSLKPEDTAVYYCAATGVTILLSSKSDYWGQGTQVTVSS | low polyreactivity |
| QVQLEESGGGLVQAGGSLRLSCAASGRIFTGYAMGWYRQAPGKERELVAAIRGSGTSTYYADSVKGRFTISRDNAKNTVYLQMNSLKPEDTAVFYCAADWYTSRGWDWYDYWGQGTQVTVSS | high polyreactivity |
| QVQLEESGGGLVQAGGSLRLSCAASGRIFVRNGMGWYRQAPGKESELVPAITSAGSTNYADSVKGRFTISRDNAKNTVYLQMNSLIPEDTAVYYCATEPSGYYDSYYYFTYSDNYWGQGTQVTVSS | low polyreactivity |
| QVQLEESGGGLVQAGGSLRLSCAASGRIFWGYAMGWYRQAPGKERELVAGITYSGGSTYYADSVKGRFTISRDNAKNTVYLQMNSLKPEDTAVYYCAADATPGRGVDYWGQGTQVTVSS | high polyreactivity |
| QVQLEESGGGLVQAGGSLRLSCAASGRIFYFNTKGWYRQAPGKERELVAAISRSGTSTYYADSVKGRFTISRDFAKNTVYLQMNSLKPEDTAVYYCAARFGVKRGQYDYWGQGTQVTVSS | high polyreactivity |
| QVQLEESGGGLVQAGGSLRLSCAASGRIFYHYAMGWYRTAPGKERELVAAITSSGAGTYYADSVKGRFTISRDNAKNTVYLQMNSLKPEDTAVYYCAADASRRYRYWYDYWGQGTQVTVSS | high polyreactivity |

| Sequence | polyreactivity (PSR sort gate) |
| --- | --- |
| QVQLEESGGGLVQAGGSLRLSCAASGRIFYPYAMGWYRQAPGKERELVAAISRSGGSTYYADSVKGRFTISRDNAKNTVYLQMNSLKPEDTAVYYCATGFYRAISHHGYDYWGQGTQVTVSS | low polyreactivity |
| QVQLEESGGGLVQAGGSLRLSCAASGRILSLYAMGRYRQAPGKERELVAAIRWSGSRTYYADSVKGRFTISRDNAKNTVYLQMNSLKPEDTAVYYCAAESHYPHKPGSDYWGQGTQVTVSS | high polyreactivity |
| QVQLEESGGGLVQAGGSLRLSCAASGRTFDIYAMGWYRQATGKERELVAAISSGGSTYYADSVKGRFTISRDNAKNTVFLQMNSLKPEDTAVYYCAVRWYDQVSRRGIGYYWGQGTQVTVSS | low polyreactivity |
| QVQLEESGGGLVQAGGSLRLSCAASGRTFSSYAMVWYRQAPGKERELVAAINSGGSTNYADSVKGRFTISRDNAKNTVYLQMNSLKPEDTAVYYCNAVTFWGLGYDYWGQGTQVTVSS | low polyreactivity |
| QVQLEESGGGLVQAGGSLRLSCAASGRTFVYYAMGWYRTATGKQRELVAAITSSGSRTYYADSVKGRFTFSRDNAKNTVYLQMNSLKPEDTAVYYCAADYVAHGDYRVLYDYWGQGTQVTVSS | low polyreactivity |
| QVQLEESGGGLVQAGGSLRLSCAASGRTITNYAMGWYRQAPGKERELVASINSGGSTSYADSVKGRFTISRDNAKNTVYLQMNSLKPEDTAVYYCNKRYLKFWGHQYGYWGQGTQVTVSS | high polyreactivity |
| QVQLEESGGGLVQAGGSLRLSCAASGRTSLAYAMGWYRQATGKEMELVAGITSGGNTNYADSVKGRFTISCDNAKNTVYLQMNSLKPEDTAVYYCNKKKRWQWYSDSVLDYLGFYSWGQGTQVTVSS | low polyreactivity |
| QVQLEESGGGLVQAGGSLRLSCAASGSIFAVYAMGWYIQAPGKERELVATISGRGGSTYYADSVKGRFTISRDNAKNTVYLQMNSLKPEDTAVYYCNARVLFRRERMDSWGQGTQVTVSS | high polyreactivity |
| QVQLEESGGGLVQAGGSLRLSCAASGSIFFYYAMGWYRQAPGKERELVAAIRSGTSTNYADSVKGRFTISRDNAKNTVYLQMNSLKPEDTAVYYCAARFPGGCYGMDYWGQGTQVTVSS | low polyreactivity |
| QVQLEESGGGLVQAGGSLRLSCAASGSIFGLYAMGWYRQAPGKERELVAAISARGGSTYYADSVKGRFTISRDNAKNTVYLQMNSLKPEDTAVNYCATRQVSAYSYIYDYWGQGTQVTVSS | high polyreactivity |
| QVQLEESGGGLVQAGGSLRLSCAASGSIFNYYAMGWYRQAPGKERELVAAITTSGGNTYYADSVKGRFTISRDNAKNTVYLQMNSLKPEDTAVYYCNVDARSSYDYWGQGTQVTVSS | low polyreactivity |
| QVQLEESGGGLVQAGGSLRLSCAASGSIFTYYAMGSYRQAPGKERELVARITRGGGTTYYADSVKGRFTISRDNAKNTVYLQMNSLKPEDTAVYYCAADFFAGTPRTFDYWGQGSQVTVSS | high polyreactivity |
| QVQLEESGGGLVQAGGSLRLSCAASGSIFVTNAMGWYRQAPVKERELVAAISSGGNTNYADSVKGRFTISRDNAKNTVYLQMNSLKPEDTAVYYCAKDPDKVDYVDMDYWGQGTQVTVSS | low polyreactivity |
| QVQLEESGGGLVQAGGSLRLSCAASGSIFWIYALGWYRQAPGKERELVATITRRGGSTYYADSVKGRFTISRDNAKNTVYLQMNSLKPEDTAVYYCATEPGYTYLTSYKYDYWGQGTQVTVSS | low polyreactivity |
| QVQLEESGGGLVQAGGSLRLSCAASGSIFYSNAMGWYRQAPGKEREFVAAISAGGGSTYYADSVKGRFTISRDNEKNTVYLQMNSLKPEDTSVYYCAAQPYNIIYPYDYWGQGTQVTVSS | low polyreactivity |
| QVQLEESGGGLVQAGGSLRLSCAASGSIFYSYAMGWYRQAPGKERELVAAINWSGGSTYYADSVKGRFTISRDNAKNTFYFQMNSLKPQDTAVYYCAADYGWGPIYDYWGQGTQVNVSS | low polyreactivity |
| QVQLEESGGGLVQAGGSLRLSCAASGSIFYVYAIGSYRQAPRKERELVAAISQSGGNTYYADSVKGRFTISRDNAKNTVYLQMNSLKPEDTAVYYCNAVYYYYAGNYWGQGTQVTVSS | high polyreactivity |
| QVQLEESGGGLVQAGGSLRLSCAASGSIIAGYAMGWYRQAPGKERELVAAISQRGTSTYYADSVKGRFTISRDNAKNTVYLQMNSLKPEDTAVYYCAARVVSRMDYWGQGTQVTVSS | high polyreactivity |
| QVQLEESGGGLVQAGGSLRLSCAASGSNFYLNDMGWYRQAPGKEREFVAAIDSRGTSTYYADSVKGRFTISRDNAKNTVYLQMNSLNPEDTAVYYCAADSYALEYDYWGQGTQVTVSS | low polyreactivity |
| QVQLEESGGGLVQAGGSLRLSCAASGSTCGYYAMGWYRQAPGKERELVAVITRGGSTYYADSVKGRFTISRDNAMNTVYLQMNSLKPEDTAVYYCNARVQAVHYGYWGQGTQVPVSS | high polyreactivity |
| QVQLEESGGGLVQAGGSLRLSCAASGSTFANYAMGWYRQAPRKERELVAGISWRGGRTYYADSVMGRFTISRDNGKNTVYLQINILKPEDTAVYYCAVVHQTFTGDYWGQGTQVTVSS | high polyreactivity |
